± gives the standard error. This sample holds only a part of the variants without activity.
B1: glmS ribozyme (parent)
chain: AUAAAAGCGCCAGAACUACAGAAAUGUAGUUGACGAGGAGGAGGUUUAUCGAAUUUUCGGCGGAUGCCUCCAAA

What was measured:
Conditions in all cases: with glucosamine-6-phosphate
[1] = variants of: B1; test: self-cleavage kobs at 40 uM GlcN6P; higher = faster cleavage; RNA array
Outline: (§1)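 kcat and KM were obtained from weighted Michaelis–Menten fits across concentrations of kobs values. Those came from one- or two-exponential decay fits to per-tile medians normalised to baseline and to non-cleaving reference variants. The variants were barcoded ribozymes transcribed in situ by E. coli RNA polymerase on sequenced MiSeq chips and tracked through a hybridised Cy3 probe at 37 °C, with 40 μM to 10 mM glucosamine-6-phosphate in HEPES/KCl/Mg(OAc)2 buffer flowed in.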

[2] = variants of: B1; test: self-cleavage kobs at 10000 uM GlcN6P; higher = faster cleavage; RNA array
Outline: as §1

[3] = variants of: B1; test: self-cleavage kobs at 640 uM GlcN6P; higher = faster cleavage; RNA array
Outline: as §1

[4] = variants of: B1; test: self-cleavage kobs at 2500 uM GlcN6P; higher = faster cleavage; RNA array
Outline: as §1

[5] = variants of: B1; test: self-cleavage kobs at 160 uM GlcN6P; higher = faster cleavage; RNA array
Outline: as §1

Variant	self-cleavage kobs at 40 uM GlcN6P [1]	self-cleavage kobs at 10000 uM GlcN6P [2]	self-cleavage kobs at 640 uM GlcN6P [3]	self-cleavage kobs at 2500 uM GlcN6P [4]	self-cleavage kobs at 160 uM GlcN6P [5]
C11U A33G G37U C71A	< 1e-05 s⁻¹	< 1e-05 s⁻¹	–	–	–
C11U C50A C70G	9.07e-05 ± 2.5e-05 s⁻¹	5.4e-05 ± 1.6e-05 s⁻¹	0.000365 ± 8.8e-05 s⁻¹	0.000173 ± 6e-05 s⁻¹	–
C11U G43C	< 1e-05 s⁻¹	–	< 1e-05 s⁻¹	< 1e-05 s⁻¹	< 1e-05 s⁻¹
C10U G29C G37A A53C	< 1e-05 s⁻¹	–	–	–	–
C11A C61A C67A	0.000153 ± 4.5e-05 s⁻¹	7.62e-05 ± 2.5e-05 s⁻¹	–	–	–
C11U G32C A36G G62A C71G	< 1e-05 s⁻¹	–	< 1e-05 s⁻¹	–	–
C10U U65A	< 1e-05 s⁻¹	< 1e-05 s⁻¹	< 1e-05 s⁻¹	< 1e-05 s⁻¹	< 1e-05 s⁻¹
C11G U57G	< 1e-05 s⁻¹	< 1e-05 s⁻¹	–	< 1e-05 s⁻¹	< 1e-05 s⁻¹
C11A U46G A52C	< 1e-05 s⁻¹	< 1e-05 s⁻¹	–	–	–
C10U U54A U57C	< 1e-05 s⁻¹	–	–	–	–
C10U G32C C68A	< 1e-05 s⁻¹	–	–	–	–
C10U U45G	< 1e-05 s⁻¹	< 1e-05 s⁻¹	< 1e-05 s⁻¹	–	< 1e-05 s⁻¹
C11U C58G C68U	7.67e-05 ± 2.5e-05 s⁻¹	5.66e-05 ± 1.6e-05 s⁻¹	0.000262 ± 7e-05 s⁻¹	–	0.000349 ± 9.1e-05 s⁻¹
C11A A33U U45A	< 1e-05 s⁻¹	–	< 1e-05 s⁻¹	< 1e-05 s⁻¹	–
C11U A33G U69A	< 1e-05 s⁻¹	< 1e-05 s⁻¹	–	–	–
C11G G13A	< 1e-05 s⁻¹	< 1e-05 s⁻¹	–	–	< 1e-05 s⁻¹
C10U U54A C70A	< 1e-05 s⁻¹	–	–	–	–
C11U C16U	6.96e-05 ± 2e-05 s⁻¹	0.00196 ± 0.0007 s⁻¹	0.000352 ± 9.4e-05 s⁻¹	0.00134 ± 0.00058 s⁻¹	8.34e-05 ± 2.3e-05 s⁻¹
C11U C50G C68G	6.75e-05 ± 1.4e-05 s⁻¹	–	0.000123 ± 1.8e-05 s⁻¹	0.000141 ± 2.8e-05 s⁻¹	–
C10U G38A G66U	< 1e-05 s⁻¹	–	–	–	–
C11A U45G	< 1e-05 s⁻¹	–	< 1e-05 s⁻¹	–	< 1e-05 s⁻¹
C11U A52C	< 1e-05 s⁻¹	< 1e-05 s⁻¹	< 1e-05 s⁻¹	< 1e-05 s⁻¹	–

Source: the supplement of paper PMC7125110
